Assay results from patent US20250195629A1, “SITE-SPECIFIC BRAIN THERAPEUTICS” (William Marsh Rice University, priority 2023, published 2025).

Tested on: wild-type C57BL/6J mice
Test: Locomotor behavior test (open field) before and after L-DOPA
Format: in vivo, mouse
Excerpt: RAID neuromodulation provides an approach for precise modulation of brain activity through regionally activated interstitial drug delivery. It should be noted, site-specific, noninvasive methods hold promise for controlled behavioral modulation. As such, to evaluate long-term efficacy of RAID neuromodulation, RAID's ability to sustain behavioral control over time is described herein. In some embodiments, to measure effects of RAID neuromodulation on behavior, targeting dorsal striatum with two FUS sites are be analyzed. In some instances, effects of RAID neuromodulation by targeting dorsal striatum with two FUS sites can be used to increase an amount of on-target delivery of AADC in the CPu region that contains dopamine-responsive cells. […] With this in mind, in certain embodiments, a pair of AADC-IKVAV (SEQ ID NO: 23) and L-DOPA may be used to evaluate whether RAID can induce similar behavioral changes after the prodrug administration. In some embodiments, AADC-IKVAV (SEQ ID NO: 23) is delivered via FUS-BBBO to two sites in the left striatum region of wild type mice. FIG. 11a illustrates embodiments of RAID control of behavior through targeted neuromodulation including an experimental scheme for RAID-induced control of motor behavior by targeted activation of dopamine neurons, in accordance with embodiments described herein. As illustrated, FUS in two sites of the left striatum are used to deliver AADC-IKVAV (SEQ ID NO: 23) (250 mg/kg, i.v. injection) or PBS buffer control. After 2 days, open field test (OFT) was performed twice before and after a single injection of the prodrug L-DOPA (2 mg/kg, i.p.), allowing 200 minutes between each test. The locomotor activity was recorded for 15 min after a habituation period of 5 min in each test. After the testing, mice were perfused 2 h after L-DOPA administration for histologic examination of AADC-IKVAV (SEQ ID NO: 23) retention and neuron activation (c-Fos+) to confirm localize neuromodulation. As schematically depicted in FIG. 11a, the AADC protein fused with a short peptide IKVAV (SEQ ID NO: 23) (e.g., AADC-IKVAV (SEQ ID NO: 23)) to two sites in the left striatum of wild-type mice using FUS-BBBO. After 46 hours, the mice underwent an open field (OF) test to assess baseline locomotor activity over a 20-minute period. The mice were then returned to their home cages and, 100 minutes later, received an intraperitoneal injection of L-DOPA (2 mg/kg) before undergoing another OF test.
Locomotor behavior test—Two groups of mice underwent FUS-BBBO targeting two sites at left striatum immediately after intravenous injection of recombinant protein AADC-IKVAV (SEQ ID NO: 23) (n=14 mice for FUS+AADC-IKVAV group, 20 mg/mL, 250 mg/kg) or equivalent volume of PBS buffer (n=11 mice for FUS alone group). Another group without FUS-BBBO procedure served as wild type control (n=12 mice for WT group). After 46 h, the first session of behavioral test was performed in a custom-made non-transparent open field box (30.5 cm×30.5 cm) as a baseline. Each mouse was individually placed into the apparatus center with a light intensity and background noise at ˜320 lux and 46 dB (400 Hz peak), respectively. After a habituation period of 5 min, the locomotor activity of a freely-moving mouse was recorded for 15 min by a video tracking system (Stoelting Co.) consisting of an overhead camera connected to a computer with Any-Maze software. Behavioral measures include total distance traveled, average and maximum speed, freezing time and episodes, mobile/immobile time and episodes, clockwise and counterclockwise rotations and head turn angles. The mouse was returned to the home cage immediately after testing. After 90 min, the mice were intraperitoneally injected with carbidopa (25 mg/kg) and 10 min later L-DOPA (2 mg/kg) as described above. A second session of open field test 100 min after L-DOPA injection.

[1] = FUS+AADC-IKVAV alone, 46 h, vs WT and FUS alone

| Molecule | decrease of clockwise (contralateral) rotation after L-DOPA (FUS alone group, L-DOPA 2 mg/kg i.p.) | change in episodes of mobility after L-DOPA (control groups, FUS alone or wild type, L-DOPA 2 mg/kg i.p.) | reduction of counter-clockwise (ipsilateral) rotations after L-DOPA (control mice with FUS alone or no treatment, L-DOPA 2 mg/kg i.p.) | decrease of clockwise (contralateral) rotation after L-DOPA (untreated wild-type group, L-DOPA 2 mg/kg i.p.) | counter-clockwise rotations before L-DOPA administration [1] | number of mobile episodes before L-DOPA administration [1] | clockwise (contralateral) rotation after L-DOPA (RAID treatment: FUS + AADC-IKVAV, L-DOPA 2 mg/kg i.p.) | decrease in mobile episodes after L-DOPA (RAID: FUS two sites left striatum + AADC-IKVAV 250 mg/kg i.v., 2 days, L-DOPA 2 mg/kg i.p.) | reduction of counter-clockwise (ipsilateral) rotations after L-DOPA (full RAID treatment: FUS + AADC-IKVAV 250 mg/kg i.v., L-DOPA 2 mg/kg i.p.) |
| --- | --- | --- | --- | --- | --- | --- | --- | --- | --- |
| N[C@@H](Cc1ccc(O)c(O)c1)C(=O)O [L-DOPA, reference compound] | 44±13% | no significant change | not in the control mice | 52±8% | – | – | – | – | – |
| AADC-IKVAV: aromatic-L-amino-acid decarboxylase (AADC) protein fused with short peptide IKVAV (SEQ ID NO: 23); CDS SEQ ID NO: 21 (protein, misc_feature 1..1602 Synthetic: AADC-IKVAV) MRGSHHHHHHGMASMTGGQQMGRDLYDDDDKDPMNASEFRRRGKEMVDYMANYMEGIEGRQVYPDVEPGYLRPLIPAAAPQEPDTFEDIINDVEKIIMPGVTHWHSPYFFAYFPTASSYPAMLADMLCGAIGCIGFSWAASPACTELETVMMDWLGKMLELPKAFLNEKAGEGGGVIQGSASEATLVALLAARTKVIHRLQAASPELTQAAIMEKLVAYSSDQAHSSVERAGLIGGVKLKAIPSDGNFAMRASALQEALERDKAAGLIPFFMVATLGTTTCCSFDNLLEVGPICNKEDIWLHVDAAYAGSAFICPEFRHLLNGVEFADSFNFNPHKWLLVNFDCSAMWVKKRTDLTGAFRLDPTYLKHSHQDSGLITDYRHWQIPLGRRFRSLKMWFVFRMYGVKGLQAYIRKHVQLSHEFESLVRQDPRFEICVEVILGLVCFRLKGSNKVNEALLQRINSAKKIHLVPCHLRDKFVLRFAICSRTVESAHVQRAWEHIKELAADVLRAEREGGSGSSGGSGGSGGSGIKVAV | – | – | – | – | no effect | no effect | prevented that decrease | 38±8% | 63±10% |
